Reference: PMC4043723

Legend:
Experiment in all cases: voltammetric sandwich aptasensor
thrombin = thrombin (UniProt P00734;P00734 328-363;364-622)
horseradish peroxidase = horseradish peroxidase (horseradish, UniProt P00433 31-338)
[1] = target: prostate-specific antigen (PSA) (UniProt P07288 25-261)

Measured: binding result

Chain of horseradish peroxidase (P00433 31-338): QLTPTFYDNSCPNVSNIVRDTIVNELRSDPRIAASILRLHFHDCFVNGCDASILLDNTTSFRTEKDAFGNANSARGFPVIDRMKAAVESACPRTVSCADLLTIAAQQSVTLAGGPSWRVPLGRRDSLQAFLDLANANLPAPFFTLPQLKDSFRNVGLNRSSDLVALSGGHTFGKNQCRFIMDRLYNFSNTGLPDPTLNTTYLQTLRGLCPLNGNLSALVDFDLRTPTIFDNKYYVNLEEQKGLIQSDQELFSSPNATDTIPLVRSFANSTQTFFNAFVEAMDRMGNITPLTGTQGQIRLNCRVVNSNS
Chain of prostate-specific antigen (PSA) (P07288 25-261): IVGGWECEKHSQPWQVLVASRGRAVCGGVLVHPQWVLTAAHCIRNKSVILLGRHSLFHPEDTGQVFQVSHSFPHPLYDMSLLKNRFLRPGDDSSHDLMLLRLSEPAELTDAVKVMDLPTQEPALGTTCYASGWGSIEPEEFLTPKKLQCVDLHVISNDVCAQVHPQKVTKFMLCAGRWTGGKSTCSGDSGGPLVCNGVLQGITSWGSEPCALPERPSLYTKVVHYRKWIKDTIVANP

GATTGAAAGGTCTGTTTTTGGGGTTGGTTTGGGTCAATA (ssDNA, 5'-SH-(CH2)6) [anti-rHuEPO aptamer (39-base)]
no binding: all assays above
